Patent publication US12018066
Read-outs that look alike come from different tables or passages of the source.

Legend:
[1] = biological target: SARS-CoV-2 spike protein receptor binding domain (RBD2) (SARS-CoV-2) (UniProt P0DTC2); assay: SPR sandwich binning, ligand E08
[2] = biological target: SARS-CoV-2 spike protein receptor binding domain (RBD2) (SARS-CoV-2) (UniProt P0DTC2); assay: SPR, immobilized antibody, RBD injected, 1:1 fit
[3] = biological target: SARS-CoV-2 spike protein receptor binding domain (RBD2) (SARS-CoV-2) (UniProt P0DTC2); assay: SPR sandwich binning, ligand H05
[4] = biological target: SARS-CoV-2 spike protein receptor binding domain (RBD2) (SARS-CoV-2) (UniProt P0DTC2); assay: SPR sandwich binning, ligand CR3022
[5] = biological target: SARS-CoV-2 spike protein receptor binding domain (RBD2) (SARS-CoV-2) (UniProt P0DTC2); assay: SPR sandwich binning, ligand B04
[6] = biological target: SARS-CoV-2 spike protein receptor binding domain (RBD2) (SARS-CoV-2) (UniProt P0DTC2); assay: SPR sandwich binning, ligand S01
[7] = biological target: SARS-CoV-2 spike protein receptor binding domain (RBD2) (SARS-CoV-2) (UniProt P0DTC2); assay: SPR sandwich binning, ligand G07
[8] = biological target: SARS-CoV-2 spike protein receptor binding domain (RBD2) (SARS-CoV-2) (UniProt P0DTC2); assay: SPR sandwich binning, ligand H01
[9] = biological target: SARS-CoV-2 spike protein receptor binding domain (RBD2) (SARS-CoV-2) (UniProt P0DTC2); assay: SPR sandwich binning, ligand F07; light (intermediate) cell
[10] = biological target: SARS-CoV-2 spike protein receptor binding domain (RBD2) (SARS-CoV-2) (UniProt P0DTC2)
[11] = biological target: SARS-CoV-2 spike protein receptor binding domain (RBD2) (SARS-CoV-2) (UniProt P0DTC2); assay: SPR sandwich binning, ligand E01
[12] = biological target: SARS-CoV-2 spike protein receptor binding domain (RBD2) (SARS-CoV-2) (UniProt P0DTC2); assay: SPR sandwich binning, ligand Anti-His

CR3022 (commercial anti-RBD2 antibody, reference IgG)
normalized analyte binding to RBD2 held by the immobilized ligand [1]: -0.1
Kd [2]: 0.11 µM
normalized analyte binding to RBD2 held by the immobilized ligand [3]: -0.14
normalized analyte binding to RBD2 held by the immobilized ligand [4]: -0.14
normalized analyte binding to RBD2 held by the immobilized ligand [5]: 1.64
normalized analyte binding to RBD2 held by the immobilized ligand [6]: 1.83
normalized analyte binding to RBD2 held by the immobilized ligand [7]: 1.35
normalized analyte binding to RBD2 held by the immobilized ligand [8]: -0.01
normalized analyte binding to RBD2 held by the immobilized ligand [9]: 0.23
Kd [10]: 0.114 µM
normalized analyte binding to RBD2 held by the immobilized ligand [11]: 1.63
normalized analyte binding to RBD2 held by the immobilized ligand [12]: 1.45
